Assay results as given in US20250042994A1 (HAINAN SIMCERE ZAIMING PHARMACEUTICAL, published 2025).

Key:
monkey CD19 protein [1] = target: T1, monkey CD19 protein (monkey); test: ELISA on coated monkey CD19-His
T1 construct: also called monkey CD19-His protein
Method: (§1) Human CD19-his protein (purchased from ACROBiosystems, catalog number: CD9-H52H2) was diluted with PBS to a final concentration of 4 μg/mL, and then added to a 96-well ELISA plate at 100 μl/well. The plate was sealed with a plastic film and incubated overnight at 4° C., the plate was washed 2 times with PBS the next day, and then a blocking solution [PBS+2% (w/w) BSA] was added for blocking at room temperature for 2 h. The blocking solution was poured off, and 100 nM gradiently diluted CD19 chimeric antibody or control antibody was added at 50 μl/well. After incubation at 37° C. for 2 h, the plate was washed 3 times with PBS. […] TMB substrate was added at 50 μl/well, and incubated at room temperature for 10 min, and then a stop solution (1.0 N HCl) was added at 50 μl/well. The OD450 nm values were read by an ELISA microplate reader (Multimode Plate Reader, EnSight, purchased from Perkin Elmer).
(§2) In order to detect the species cross-binding activity of the chimeric antibodies, an ELISA plate was coated with commercial murine CD19 (ACROBiosystems, catalog number: 50510-M08H) and monkey CD19 (ACROBiosystems, catalog number: 90051-C08H), respectively, and the ELISA detection was performed according to the method in example 5.1.

human CD19 on Raji cells = target: T2, human CD19 on Raji cells (human, UniProt P15391 20-556); test: FACS on Raji cells
T2 construct: whole, on cells
T2 sequence (looked up): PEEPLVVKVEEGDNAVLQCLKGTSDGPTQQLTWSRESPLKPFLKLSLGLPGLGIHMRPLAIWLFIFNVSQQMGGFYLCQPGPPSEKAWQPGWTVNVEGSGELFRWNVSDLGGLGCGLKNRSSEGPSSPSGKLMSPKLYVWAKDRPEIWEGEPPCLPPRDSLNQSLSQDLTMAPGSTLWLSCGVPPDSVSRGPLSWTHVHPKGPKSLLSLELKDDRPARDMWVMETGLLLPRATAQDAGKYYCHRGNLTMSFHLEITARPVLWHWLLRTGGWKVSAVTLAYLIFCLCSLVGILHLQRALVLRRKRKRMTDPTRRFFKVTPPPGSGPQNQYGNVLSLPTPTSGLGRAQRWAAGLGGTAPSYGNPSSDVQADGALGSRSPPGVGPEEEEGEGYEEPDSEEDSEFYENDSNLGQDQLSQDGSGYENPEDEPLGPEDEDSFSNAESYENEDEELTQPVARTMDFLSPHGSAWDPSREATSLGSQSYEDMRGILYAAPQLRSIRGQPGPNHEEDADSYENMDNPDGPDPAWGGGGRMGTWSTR

monkey CD19 protein [2] = target: T1, monkey CD19 protein; test: ELISA, coated monkey CD19 protein
Method: as §1, §2

[3] = target: T3, cynomolgus monkey CD19 on peripheral blood B cells (cynomolgus monkey (Macaca fascicularis), UniProt A0A2K5W8L9 20-557); test: FACS, cynomolgus PBMC, CD20+ B cells
T3 construct: whole, on cells; also called cynomolgus monkey B cells
T3 sequence: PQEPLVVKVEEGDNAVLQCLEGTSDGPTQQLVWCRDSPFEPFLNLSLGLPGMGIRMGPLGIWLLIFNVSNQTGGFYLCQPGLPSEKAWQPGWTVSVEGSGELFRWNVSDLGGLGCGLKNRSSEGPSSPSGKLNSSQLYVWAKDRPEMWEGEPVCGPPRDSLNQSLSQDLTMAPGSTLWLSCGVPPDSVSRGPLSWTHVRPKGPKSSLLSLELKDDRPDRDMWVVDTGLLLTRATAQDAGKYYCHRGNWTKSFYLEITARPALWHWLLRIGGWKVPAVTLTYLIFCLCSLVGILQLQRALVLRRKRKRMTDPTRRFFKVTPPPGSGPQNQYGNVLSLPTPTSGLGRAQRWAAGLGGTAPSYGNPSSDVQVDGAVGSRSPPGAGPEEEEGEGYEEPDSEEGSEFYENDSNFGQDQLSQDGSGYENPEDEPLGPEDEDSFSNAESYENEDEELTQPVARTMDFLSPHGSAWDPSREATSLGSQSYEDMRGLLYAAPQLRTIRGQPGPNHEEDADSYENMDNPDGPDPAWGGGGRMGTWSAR

[4] = target: T4, human CD19 on CHO-K1-human CD19 cells (human, UniProt P15391 20-556); test: FACS on CHO-K1-human CD19 cells
T4 construct: whole, on cells; also called CHO-K1-human CD19-2C8
T4 sequence (looked up): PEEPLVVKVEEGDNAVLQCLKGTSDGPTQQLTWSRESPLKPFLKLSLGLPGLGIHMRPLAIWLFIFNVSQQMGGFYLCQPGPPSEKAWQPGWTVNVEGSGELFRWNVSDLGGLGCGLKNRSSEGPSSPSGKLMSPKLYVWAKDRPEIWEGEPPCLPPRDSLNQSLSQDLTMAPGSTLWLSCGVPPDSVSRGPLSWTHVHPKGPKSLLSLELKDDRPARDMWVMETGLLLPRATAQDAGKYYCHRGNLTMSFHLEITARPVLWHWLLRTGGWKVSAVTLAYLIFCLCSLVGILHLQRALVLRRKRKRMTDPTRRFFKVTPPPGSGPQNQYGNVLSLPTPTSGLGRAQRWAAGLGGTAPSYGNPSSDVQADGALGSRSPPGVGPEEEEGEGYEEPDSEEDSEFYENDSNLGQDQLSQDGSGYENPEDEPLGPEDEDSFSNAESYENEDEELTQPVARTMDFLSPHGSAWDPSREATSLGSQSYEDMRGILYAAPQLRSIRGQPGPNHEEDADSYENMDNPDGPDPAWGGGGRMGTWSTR

[5] = target: T5, monkey CD19 on HEK293T-monkey CD19 cells (monkey); test: FACS on HEK293T-monkey CD19 cells
T5 construct: whole, on cells
Method in brief: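 Antibody binding was read as MFI by flow cytometry and EC50 was taken from curve fitting. Before that, cells at 2×10⁶ cells/ml in PBS with 2% (w/w) BSA were exposed to samples for 2 h on ice and washed. Parental HEK293T cells were tested the same way.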

[6] = target: T3, cynomolgus monkey CD19 on peripheral …; test: FACS, cynomolgus monkey PBMC, 1 nM antibody, co-stained with CD20 antibody
Method: The monkey peripheral blood mononuclear cells were extracted from fresh cynomolgus monkey peripheral blood (purchased from Shanghai Medicilon Inc.) according to the instructions of Ficoll-Paque Plus (purchased from GE Healthcae, catalog number: 171440-02). After the cell suspension was centrifuged, the cells were resuspended in PBS containing 1% BSA, and then the cells were counted. […] The mixture was incubated for 1 h at room temperature. After washing the cells three times, APC-labeled secondary antibody anti-human IgG Fc (catalog number: 409306, purchased from Biolegend) was added. After incubation at room temperature in the dark for 30 minutes, the cells were washed 5 times, gently resuspended with PBS containing 1% BSA, and detected and analyzed by FACS (FACS Canto™, purchased from BD Company), in which CD20 was used as a marker of B cells to gate the CD20-positive B cell population, the proportion of the chimeric antibody-labeled positive cells was analyzed, and the proportion of the chimeric antibody positive cell population to B cell population was calculated after treatments with the chimeric antibodies at the concentrations of 100 nM, 10 nM and 1 nM, respectively.

B1: F3.124.7 (antibody, human IgG1, V domains shown)
VH: EVQLQQSGPVLVKPGASVKMSCKASGYTFTDYYMNWVKQRHGKSLEWIGISNPYNGGTSYNQKFKDKATLTVDKSSSTAYMELNSLTSEDSAVYYCAREGGTAQPTSGMDYWGQGTSVTVSS
VL: NIMMTQSPSSLAVSAGEKVTMSCKSSQSVLYSSNQKNYLAWYQQKPGQSPKLLIYWASTRESGVPDRFTGSGSGTDFTLTISSVQPEDPAVYYCHQYRSSYTFGGGTKLEIK
notes: human-murine chimeric antibody, human IgG1
In the case of B1, the “EC50 (read off the curve)” value (monkey CD19 protein [1]) is reported as about 0.04 nM, the EC50 (human CD19 on Raji cells) is reported as 2.46 nM and the “Maximum mean fluorescence intensity” value (human CD19 on Raji cells) is reported as 19100. For the same binder, the “OD450 at 0.0001 nM” value (monkey CD19 protein [2]) was 0.08 OD450, the “OD450 at 0.001 nM” value (monkey CD19 protein [2]) was 0.12 OD450 and the “OD450 at 0.01 nM” value (monkey CD19 protein [2]) was 0.41 OD450. The “OD450 at 0.10 nM” value (monkey CD19 protein [2]) was 1.44 OD450, the “OD450 at 1.00 nM” value (monkey CD19 protein [2]) was 1.93 OD450 and the “OD450 at 10 nM” value (monkey CD19 protein [2]) was 2.04 OD450. For the same binder, the “OD450 at 100 nM” value (monkey CD19 protein [2]) was 1.93 OD450, the “Proportion of chimeric antibody positive cells to B cells (%) at 1 nM” value [3] was 23% and the “Proportion of chimeric antibody positive cells to B cells (%) at 10 nM” value [3] was 65%. The “Proportion of chimeric antibody positive cells to B cells (%) at 100 nM” value [3] was 92%, the EC50 [4] was 1.35 nM and the “Maximum mean fluorescence intensity” value [4] was 47500. For the same binder, the EC50 [5] was 1.27 nM and the “Maximum mean fluorescence intensity” value [5] was 112000.

B2: F4.58.6 (antibody, human IgG1, V domains shown)
VH: QVQLQQPGAELVKPGASVKLSCKASGYTFTSYWMHWVKQRPGQGLEWIGEIDPSDSYSNYNQKFKGKATLTVDKSSSTAYMQLSSLTSEDSAVYYCARSNYGSSYGYFDVWGAGTTVTVSS
VL: QIVLTQSPAIMSASPGEKVTMTCSVSSSLSYMHWYQQKPGTSPKRWIYDTSKLASGVPARFSGSGSGTSYSLTISSMEAEDAATYYCHQRSSYPTFGGGTKLEIK
notes: as for B1
B2 was tested, and the “ratio of chimeric antibody-labeled positive cells to CD20 positive cells” value [6] was 2%, the EC50 (human CD19 on Raji cells) was 1.31 nM and the “Maximum mean fluorescence intensity” value (human CD19 on Raji cells) was 26100. For the same binder, the “Proportion of chimeric antibody positive cells to B cells (%) at 1 nM” value [3] was 1%, the “Proportion of chimeric antibody positive cells to B cells (%) at 10 nM” value [3] was 2% and the “Proportion of chimeric antibody positive cells to B cells (%) at 100 nM” value [3] was 4%. For the same binder, the EC50 [4] was 1.09 nM, the “Maximum mean fluorescence intensity” value [4] was 56700 and the “Maximum mean fluorescence intensity” value [5] was 81.
